# Patent US20120316071A1 (published 2012)
# Substitutions are numbered along the chain they refer to. Names and notes keep the numbering of the source.
# T1: rHuman Erythropoietin R/Fc Chimera, CF (human, UniProt P19235 25-250)
# T1 construct: Bought from R&D Systems; also called EPO R; EPO R/Fc; not shown: Fc of the bought chimera
# T1 sequence (looked up): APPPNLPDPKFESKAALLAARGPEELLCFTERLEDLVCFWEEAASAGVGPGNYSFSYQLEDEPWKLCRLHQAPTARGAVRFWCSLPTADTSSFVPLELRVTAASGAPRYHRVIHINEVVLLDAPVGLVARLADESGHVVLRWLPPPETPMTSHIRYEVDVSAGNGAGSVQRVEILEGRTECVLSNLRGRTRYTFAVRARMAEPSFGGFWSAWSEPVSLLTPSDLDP
# T2: rHuman Erythropoietin R/Fc Chimera, CF (R&D Systems Cat#963-ER) (human, UniProt P19235 25-250)
# T2 construct: Bought recombinant Fc chimera; also called EPO R; EPO R/Fc; Fc part of the bought chimera not given
# T2 sequence (looked up): T1 sequence (looked up)
# B1: Fab VH1-46_IGHD6-6*01_IGHJ1*01 S102A/S103P/S104F/H111F (APFF) & L6_IGKJ1*01 S28G (Fab, V domains shown)
# VH: QVQLVQSGAEVKKPGASVKVSCKASGYTFTSYYMHWVRQAPGQGLEWMGIINPSGGSTSYAQKFQGRVTMTRDTSTSTVYMELSSLRSEDTAVYYCAREEYAPFSAEYFQFWGQGTLVTVSS
# VL: EIVLTQSPATLSLSPGERATLSCRASQGVSSYLAWYQQKPGQAPRLLIYDASNRATGIPARFSGSGSGTDFTLTISSLEPEDFAVYYCQQRSNWPPWTFGQGTKVEIKR
# notes: Fab made in E. coli; the variable domains were cloned into Plasmid A (CH1, His and Flag tags) and Plasmid C (kappa CL); also called APFF / S28G
# B2: Fab VH1-46_IGHD6-6*01_IGHJ1*01 S102A/S103P/S104F/H111F (APFF) & L6_IGKJ1*01 S28L (Fab, V domains shown)
# VH: B1 VH
# VL: B1 VL with G28L
# notes: Fab made in E. coli; the variable domains were cloned into Plasmid A (CH1, His and Flag tags) and Plasmid C (kappa CL); also called APFF / S28L
# B3: Fab VH1-46_IGHD6-6*01_IGHJ1*01 S102A/S103P/S104F/H111F (APFF) & L6_IGKJ1*01 S28K (Fab, V domains shown)
# VH: B1 VH
# VL: B1 VL with G28K
# notes: Fab made in E. coli; the variable domains were cloned into Plasmid A (CH1, His and Flag tags) and Plasmid C (kappa CL); also called APFF / S28K
# B4: Fab VH1-46_IGHD6-6*01_IGHJ1*01 S102A/S103P/S104F/H111F (APFF) & L6_IGKJ1*01 S28V (Fab, V domains shown)
# VH: B1 VH
# VL: B1 VL with G28V
# notes: Fab made in E. coli; the variable domains were cloned into Plasmid A (CH1, His and Flag tags) and Plasmid C (kappa CL); also called APFF / S28V
# B5: Fab VH1-46_IGHD6-6*01_IGHJ1*01 S102A/S103P/S104F/H111F (APFF) & L6_IGKJ1*01 S28P (Fab, V domains shown)
# VH: B1 VH
# VL: B1 VL with G28P
# notes: Fab made in E. coli; the variable domains were cloned into Plasmid A (CH1, His and Flag tags) and Plasmid C (kappa CL); also called APFF / S28P
# B6: Fab VH1-46_IGHD6-6*01_IGHJ1*01 S102A/S103P/S104F/H111F (APFF) & L6_IGKJ1*01 S28A (Fab, V domains shown)
# VH: B1 VH
# VL: B1 VL with G28A
# notes: Fab made in E. coli; the variable domains were cloned into Plasmid A (CH1, His and Flag tags) and Plasmid C (kappa CL); also called APFF / S28A
# B7: Fab VH1-46_IGHD6-6*01_IGHJ1*01 S102A/S103P/S104F/H111F (APFF) & L6_IGKJ1*01 S28F (Fab, V domains shown)
# VH: B1 VH
# VL: B1 VL with G28F
# notes: Fab made in E. coli; the variable domains were cloned into Plasmid A (CH1, His and Flag tags) and Plasmid C (kappa CL); also called APFF / S28F
# B8: Fab VH1-46_IGHD6-6*01_IGHJ1*01 S102A/S103P/S104F/H111F (APFF) & L6_IGKJ1*01 (Fab, V domains shown)
# VH: B1 VH
# VL: not shown
# notes: Fab made in E. coli; the variable domains were cloned into Plasmid A (CH1, His and Flag tags) and Plasmid C (kappa CL); also called APFF / parent; H:APFF & L:wt
# B9: Fab VH1-46_IGHD6-6*01_IGHJ1*01 S102A/S103P/S104F/H111F I50A & L6_IGKJ1*01 (Fab, V domains shown)
# VH: B1 VH with I50A
# VL: not shown
# notes: Fab (CH1 with His6/Flag tags from Plasmid A, kappa CL from Plasmid C); also called APFF I50A
# B10: Fab VH1-46_IGHD6-6*01_IGHJ1*01 S102A/S103P/S104F/H111F N52A & L6_IGKJ1*01 (Fab, V domains shown)
# VH: B1 VH with N52A
# VL: not shown
# notes: Fab (CH1 with His6/Flag tags from Plasmid A, kappa CL from Plasmid C); also called APFF N52A
# B11: Fab VH1-46_IGHD6-6*01_IGHJ1*01 S102A/S103P/S104F/H111F S57A & L6_IGKJ1*01 (Fab, V domains shown)
# VH: B1 VH with S57A
# VL: not shown
# notes: Fab (CH1 with His6/Flag tags from Plasmid A, kappa CL from Plasmid C); also called APFF S57A
# B12: Fab VH1-46_IGHD6-6*01_IGHJ1*01 S102A/S103P/S104F/H111F T58A & L6_IGKJ1*01 (Fab, V domains shown)
# VH: B1 VH with T58A
# VL: not shown
# notes: Fab (CH1 with His6/Flag tags from Plasmid A, kappa CL from Plasmid C); also called APFF T58A
# B13: Fab VH1-46_IGHD6-6*01_IGHJ1*01 S102A/S103P/S104F/H111F I51A & L6_IGKJ1*01 (Fab, V domains shown)
# VH: B1 VH with I51A
# VL: not shown
# notes: Fab (CH1 with His6/Flag tags from Plasmid A, kappa CL from Plasmid C); also called APFF I51A
# B14: Fab VH1-46_IGHD6-6*01_IGHJ1*01 S102A/S103P/S104F/H111F P53A & L6_IGKJ1*01 (Fab, V domains shown)
# VH: B1 VH with P53A
# VL: not shown
# notes: Fab (CH1 with His6/Flag tags from Plasmid A, kappa CL from Plasmid C); also called APFF P53A
# Molecular target: T3, rHuman CD44/Fc Chimera, CF (human, UniProt P16070 21-220)
# T3 construct: Bought from R&D Systems; not shown: Fc of the bought chimera
# Test: ECL Multispot (MSD) assay; antigen spotted on plate, Fab in solution;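 further: fab bound 1 h at 20 °C, detected by TAG-labelled antibody electrochemiluminescence, signal relative to each well's blank, ratio of 4 or more marks a hit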
row,ECL signal,Binder
1,436,B1
2,365,B2
3,464,B3
4,380,B4
5,365,B5
6,502,B6
7,402,B7

# Molecular target: T4, rHuman HGF R/c-MET/Fc Chimera, CF (human, UniProt P08581 25-932)
# T4 construct: Bought from R&D Systems; also called HGF R/Fc; hepatocyte growth factor receptor; not shown: Fc of the bought chimera
# Test: as above
# T4 sequence (P08581 25-932, change not shown): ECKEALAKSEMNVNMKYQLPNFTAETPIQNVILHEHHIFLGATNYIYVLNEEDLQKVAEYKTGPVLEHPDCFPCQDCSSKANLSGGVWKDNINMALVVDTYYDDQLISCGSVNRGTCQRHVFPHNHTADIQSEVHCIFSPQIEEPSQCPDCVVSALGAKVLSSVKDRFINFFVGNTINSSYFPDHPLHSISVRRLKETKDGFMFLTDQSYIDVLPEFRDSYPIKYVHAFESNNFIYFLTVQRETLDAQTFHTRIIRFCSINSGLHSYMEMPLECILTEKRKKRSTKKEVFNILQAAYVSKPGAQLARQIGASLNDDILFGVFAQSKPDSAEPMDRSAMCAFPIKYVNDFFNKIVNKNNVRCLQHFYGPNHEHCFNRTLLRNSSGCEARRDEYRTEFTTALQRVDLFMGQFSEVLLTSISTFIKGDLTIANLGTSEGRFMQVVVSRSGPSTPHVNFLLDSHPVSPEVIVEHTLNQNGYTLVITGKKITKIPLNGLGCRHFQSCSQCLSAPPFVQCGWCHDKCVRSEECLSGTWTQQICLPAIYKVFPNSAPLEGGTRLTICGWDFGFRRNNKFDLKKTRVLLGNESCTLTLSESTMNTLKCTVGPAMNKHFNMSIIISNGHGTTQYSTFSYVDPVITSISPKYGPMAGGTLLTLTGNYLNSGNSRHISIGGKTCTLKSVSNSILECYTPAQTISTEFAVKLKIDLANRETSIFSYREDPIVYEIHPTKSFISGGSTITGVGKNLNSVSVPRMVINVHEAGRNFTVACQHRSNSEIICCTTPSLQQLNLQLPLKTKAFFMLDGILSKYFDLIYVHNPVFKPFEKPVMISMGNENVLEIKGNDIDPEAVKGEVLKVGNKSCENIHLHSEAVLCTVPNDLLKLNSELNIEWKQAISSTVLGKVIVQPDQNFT
row,ECL signal,Binder
1,333,B1
2,317,B2
3,355,B3
4,338,B4
5,318,B5
6,377,B6
7,223,B7
8,432,B8

# Molecular target: T5, rHuman IGF-1 sR, (IGF-1 sR), CF (human, UniProt P08069 31-932)
# T5 construct: Bought from R&D Systems; also called insulin-like growth factor-1 soluble receptor
# Test: as above
row,ECL signal,Binder
1,360,B1
2,346,B2
3,348,B3
4,284,B4
5,392,B5
6,378,B6
7,275,B7
8,386,B8

# Molecular target: T6, rHuman ErbB2/Fc Chimera, CF (human, UniProt P04626 23-652)
# T6 construct: Bought from R&D Systems; also called human epidermal growth factor 2 receptor; not shown: Fc of the bought chimera
# Test: as above
row,ECL signal,Binder
1,334,B1
2,222,B2
3,270,B3
4,231,B4
5,427,B5
6,348,B6
7,242,B7
8,333,B8

# Molecular target: T7, rHuman Notch-1/Fc Chimera, CF (human, UniProt P46531 19-526)
# T7 construct: Bought from R&D Systems; not shown: Fc of the bought chimera
# Test: as above
row,ECL signal,Binder
1,324,B1
2,392,B2
3,395,B3
4,289,B4
5,416,B5
6,440,B6
7,367,B7

# Molecular target: T8, rHuman EGF R/Fc Chimera, CF (human, UniProt P00533 25-645)
# T8 construct: Bought from R&D Systems; also called epidermal growth factor receptor; not shown: Fc of the bought chimera
# Test: as above
row,ECL signal,Binder
1,360,B1
2,378,B2
3,386,B3
4,327,B4
5,370,B5
6,351,B6
7,283,B7
8,406,B8

# Molecular target: T9, rHuman P-Cadherin/Fc Chimera, CF (human, UniProt P22223 108-654)
# T9 construct: Bought from R&D Systems; not shown: Fc of the bought chimera
# Test: as above
row,ECL signal,Binder
1,491,B1
2,418,B2
3,443,B3
4,344,B4
5,605,B5
6,521,B6
7,336,B7
8,368,B8

# Molecular target: T10, Recombinant Human DLL4 (human, UniProt Q9NR61 27-524)
# T10 construct: Bought from R&D Systems; also called delta-like protein 4; rHuman DLL4
# Test: as above
row,ECL signal,Binder
1,183000,B1
2,72300,B2
3,124000,B3
4,83100,B4
5,178000,B5
6,157000,B6
7,134000,B7
8,182000,B8

# Molecular target: T1, rHuman Erythropoietin R/Fc Chimera, CF
# Test: as above
row,ECL signal,Binder
1,494,B1
2,404,B2
3,477,B3
4,446,B4
5,492,B5
6,424,B6
7,413,B7

# Molecular target: T11, rHuman EGF R/Fc Chimera, CF (R&D Systems Cat#344-ER) (human, UniProt P00533 25-645)
# T11 construct: Bought recombinant Fc chimera; also called epidermal growth factor receptor; Fc part of the bought chimera not given
# Test: ECL multispot (MSD) assay, antigen spotted on plate, 10 nM Fab;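 further: bound Fab detected with a TAG-labelled detection antibody (1 h, 20 °C), electrochemiluminescence read and compared with each well's blank, signal/blank of 4 or above scored as hit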
row,ECL signal,Binder
1,402,B9
2,340,B10
3,302,B11
4,384,B12
5,373,B13
6,439,B14

# Molecular target: T12, Recombinant Human DLL4 (R&D Systems Cat#1506-D4/CF) (human, UniProt Q9NR61 27-524)
# T12 construct: Bought recombinant protein; also called delta-like protein 4; rHuman DLL4
# Test: as above
row,ECL signal,Binder
1,2670,B9
2,169000,B10
3,112000,B11
4,47400,B12
5,159000,B13
6,151000,B14

# Molecular target: T2, rHuman Erythropoietin R/Fc Chimera, CF …
# Test: as above
row,ECL signal,Binder
1,252,B9
2,468,B10
3,477,B11
4,329,B12
5,380,B13
6,427,B14

# Molecular target: T13, rHuman P-Cadherin/Fc Chimera, CF (R&D Systems Cat#861-PC) (human, UniProt P22223 108-654)
# T13 construct: Bought recombinant Fc chimera; Fc part of the bought chimera not given
# Test: as above
row,ECL signal,Binder
1,313,B9
2,353,B10
3,232,B11
4,294,B12
5,144,B13
6,390,B14

# Molecular target: T14, rHuman Notch-1/Fc Chimera, CF (R&D Systems Cat#3647-TK) (human, UniProt P46531 19-526)
# T14 construct: Bought recombinant Fc chimera; Fc part of the bought chimera not given
# Test: as above
row,ECL signal,Binder
1,297,B9
2,383,B10
3,365,B11
4,289,B12
5,312,B13
6,393,B14

# Molecular target: T15, rHuman CD44/Fc Chimera, CF (R&D Systems Cat#3660-CD) (human, UniProt P16070 21-220)
# T15 construct: Bought recombinant Fc chimera; Fc part of the bought chimera not given
# Test: as above
row,ECL signal,Binder
1,326,B9
2,362,B10
3,439,B11
4,318,B12
5,391,B13
6,378,B14

# Molecular target: T16, rHuman IGF-1 sR, CF (R&D Systems Cat#391-GR) (human, UniProt P08069 31-932)
# T16 construct: Bought soluble receptor; also called insulin-like growth factor-1 soluble receptor
# Test: as above
row,ECL signal,Binder
1,247,B9
2,362,B10
3,417,B11
4,271,B12
5,383,B13
6,374,B14

# Molecular target: T17, rHuman HGF R/c-MET/Fc Chimera, CF (R&D Systems Cat#358-MT/CF) (human, UniProt P08581 25-932)
# T17 construct: Bought recombinant Fc chimera; also called HGF R/Fc; hepatocyte growth factor receptor; Fc part of the bought chimera not given
# Test: as above
# T17 sequence (P08581 25-932, change not shown): as above
row,ECL signal,Binder
1,301,B9
2,369,B10
3,388,B11
4,304,B12
5,440,B13
6,337,B14

# Molecular target: T18, rHuman ErbB2/Fc Chimera, CF (R&D Systems Cat#1129-ER) (human, UniProt P04626 23-652)
# T18 construct: Bought recombinant Fc chimera; also called human epidermal growth factor 2 receptor; Fc part of the bought chimera not given
# Test: as above
row,ECL signal,Binder
1,369,B9
2,378,B10
3,304,B11
4,320,B12
5,344,B13
6,203,B14
